Series [1] concerns the target T1, TIP60 (KAT5), full length (UniProt Q92993 Q92993:1-513). The series is described as follows: EMSA; no detectable RNP. Particulars: tags: SignalChem; label: 5'-32P. The protocol: (§1) Indeed, mutation of RM9A abolishing the predicted stem-loop structure, did change the strength and the mobility of the RNA-TIP60 complexes (Mut RM9A; FIG. 3E, lane 5).
(§2) RNA oligonucleotides (15 pmol) were end-labeled with [γ-³²P] ATP (Perkin Elmer) and T4 polynucleotide kinase (New England Biolabs). Reactions were incubated at 37° C. for 1 h and then passed through G-25 spin columns (GE Healthcare) according to the manufacturer's instructions to remove unincorporated radioactivity. Labeled samples were gel-purified on 10% polyacrylamide gels. Binding reactions were carried out in 10 μL volumes in the following buffer: 5 mM Tris pH 7.4, 5 mM MgCl₂, 1 mM DTT, 3% v/v glycerol, 100 mM NaCl. 5 μg of full length purified H2A.Z (Abcam) and TIP60 (SignalChem) proteins were incubated with 1.1 nM of ³²P-labeled ss RNAs. All reactions were assembled on ice and then incubated at room temperature for 30 min. Samples were loaded onto 6% native polyacrylamide gels (0.5×TBE) at 4° C. for 3 h at 140 V. Various concentrations (1 μM-10 mM) of H2A.Z and K7 acetylated H2A.Z peptides (AnaSpec) were incubated with a fixed amount of probe in 50 mM Tris-HCl pH 7.5, 100 mM NaCl, 0.4 mM EDTA, and 40 U/ml RNasin, 1 mM DTT, 50% glycerol in a final volume of 10 μL. Thereafter, 1 μl glutaraldehyde (0.2% final concentration) was added into the mixture and incubated at room temperature for 15 minutes. Samples were loaded onto 10% native polyacrylamide gels (0.5×TBE) at 4° C. for 3 h at 170 V. All gels were dried upon fixation with Methanol and Acetic Acid and exposed to X-ray film.
On the technique in general: A gel shift assay detects complexes by their altered migration in electrophoresis.

Series [2] deals with T2, Histone H2A.Z, full length (UniProt P0C0S5 P0C0S5:2-128). In words: EMSA; no detectable RNP. As to conditions: tags: Abcam; label: 5'-32P. The protocol: as §1, §2
In series [3] the target is T3, acH2A.Z N-terminal peptide (K7 acetylated).
T3 chain: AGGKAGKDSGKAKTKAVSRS
In words: EMSA; K7 acetylation did not abrogate binding; glutaraldehyde crosslink. Particulars: protein: synthetic, tags: synthetic peptide, AnaSpec, label: 5'-32P, predicted stem-loop. The protocol: as §1
as §2, with “Samples were loaded onto 10% native polyacrylamide gels (0.5×TBE) at 4° C. for 3 h at 170 V. All gels were dried upon fixation with Methanol and Acetic Acid and exposed to X-ray film.” left out

Series [4] concerns the target T4, H2A.Z N-terminal peptide.
T4 chain: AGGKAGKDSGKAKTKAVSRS
The series is described as follows: EMSA; peptide 1 uM-10 mM, glutaraldehyde crosslink. Particulars: protein: synthetic; tags: synthetic peptide, AnaSpec; label: 5'-32P; predicted stem-loop. The protocol:
as §1
as §2, with “Samples were loaded onto 10% native polyacrylamide gels (0.5×TBE) at 4° C. for 3 h at 170 V. All gels were dried upon fixation with Methanol and Acetic Acid and exposed to X-ray film.” left out

In series [5] the target is T1, TIP60 (KAT5), full length. The series is described as follows: EMSA; 5 mM Tris pH 7.4, 5 mM MgCl2, 100 mM NaCl, RT. As to conditions: tags: SignalChem; label: 5'-32P; predicted stem-loop. The protocol: as §1
as §2, with “Samples were loaded onto 10% native polyacrylamide gels (0.5×TBE) at 4° C. for 3 h at 170 V. All gels were dried upon fixation with Methanol and Acetic Acid and exposed to X-ray film.” left out

The target of series [6] is T2, Histone H2A.Z, full length. The series is described as above. As to conditions: tags: Abcam; label: 5'-32P; predicted stem-loop. The protocol: as §1
as §2, with “Samples were loaded onto 10% native polyacrylamide gels (0.5×TBE) at 4° C. for 3 h at 170 V. All gels were dried upon fixation with Methanol and Acetic Acid and exposed to X-ray film.” left out

T1 sequence (Q92993 whole entry, one chain of several): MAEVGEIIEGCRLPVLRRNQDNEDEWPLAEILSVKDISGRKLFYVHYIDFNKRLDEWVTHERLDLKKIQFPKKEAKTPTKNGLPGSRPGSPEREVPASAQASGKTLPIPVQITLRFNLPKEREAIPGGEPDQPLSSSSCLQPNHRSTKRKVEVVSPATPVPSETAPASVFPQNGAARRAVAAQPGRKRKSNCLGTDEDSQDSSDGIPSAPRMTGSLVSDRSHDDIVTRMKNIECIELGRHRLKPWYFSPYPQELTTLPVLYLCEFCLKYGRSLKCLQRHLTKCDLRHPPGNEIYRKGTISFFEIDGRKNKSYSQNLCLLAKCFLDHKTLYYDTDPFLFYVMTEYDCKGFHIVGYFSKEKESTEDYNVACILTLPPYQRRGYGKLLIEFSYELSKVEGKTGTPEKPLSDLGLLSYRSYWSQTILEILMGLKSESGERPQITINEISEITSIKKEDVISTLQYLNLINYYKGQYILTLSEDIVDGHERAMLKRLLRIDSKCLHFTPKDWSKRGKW

Take CUUUCCUCCACUCUCCCUGGGA (ssRNA) [UR2]: the binding result in series [1] and in series [2] was “no binding” throughout.
For GCGCCCUGCAGCCUGGUACGCG (ssRNA) [UR1], the binding result in series [1] and in series [2] was “no binding” in each case.
For GGCGUGGCGGUGGGCGCGCAGU (ssRNA) [RM9A], the binding result in series [3], in series [4], in series [5] and in series [6] was “binds” throughout.
As to GCCCUUUCCCCAGCCUUAGCGA (ssRNA) [UR3], the binding result in series [1] and in series [2] was “no binding” in each case.

The record behind these values is patent publication US20240209456, “METHODS AND COMPOSITIONS RELATED TO CELL-CYCLE RNA's” (BETH ISRAEL DEACONESS MEDICAL CENTER, published 2024).
